Target: Bovine submaxillary mucin (bovine)
Test: SPR, BSM immobilised on CM5 chip

CC49.scFv
Kd: 30 nM

From US20170218081A1
